Assay results as given in patent US20110027291A1, “METHODS, SYSTEMS AND PRODUCTS FOR PREDICTING RESPONSE OF TUMOR CELLS TO A THERAPEUTIC AGENT AND TREATING A PATIENT ACCORDING TO THE PREDICTED RESPONSE” (MERRIMACK PHARMACEUTICALS, INC., priority 2008, published 2011).
Entries after “also recorded” stand apart in the source; their conditions may differ.

Key:
[1] = system: DU145 xenograft tumor (prostate cancer cell line); test: Xenograft efficacy study with Ab #6: DU145; format: in vivo, nu/nu mice
From the text: (§1) In this example, four xenograft tumor models were used to identify tumor cell lines that responded to treatment with the anti-ErbB3 antibody Ab #6. The four xenograft tumor models studied represent different indications: MALME3M (melanoma cancer line; ATCC No. HTB-64), ADRr (ovarian cancer cell line; NCI-60, cosmic sample ID No. 905987), ACHN (renal cancer cell line; ATCC No. CRL-1611) and DU145 (prostate cancer cell line; ATCC No. HTB-81).
(§2) In the xenograft tumor models, mice (nu/nu mice: 3-4 week old female mice, T-cell deficient; outbred; Albino background; from Charles River Labs, Wilmington, Mass.) are implanted in the right flank with […] cells/mouse (depending on cell line) in 200 μl via subcutaneous injection. Mice are monitored for initial tumor growth. Tumor cells are allowed to grow for several days until the tumor volume is approximately 200 mm^3. The tumor volume is calculated as V=(π/6 (L×W^2). The mice are treated with the Ab #6 antibody at a dosage of 600 μg/injection every 3 days (qd3). Control mice are treated with phosphate buffered saline (PBS).
(§3) Tumor volume is measured for 60-80 days.
(§4) As a measure of responsiveness of the tumor to Ab #6, the exponential growth rate is determined, which described the experimental data best. The following formula is used to describe the exponential growth. […]

IGROV1 xenograft tumor = test: Xenograft study with Ab #6 (predicted set): IGROV1; format: in vivo, mice
Procedure: as §2
(§5) To test these model predictions, three additional in vivo xenograft studies were performed. The IGROV1, OVCAR8 and SKOV3 cell lines were used in xenograft studies conducted as described in Example 1, wherein mice were treated with 600 μg of Ab #6 every 3 days or with PBS as a control. The xenograft responses, as determined by changes in tumor volume (in mm^3) over time, are summarized in the graphs of FIGS. 9A-9C. Again, the Growth Rate Reduction (GRR) value for each cell line was calculated using the following formula:
(§6) Growth Rate Reduction=1−(Ab #6 Growth Rate)/(PBS Growth Rate)

OVCAR8 xenograft tumor = test: Xenograft study with Ab #6 (predicted set): OVCAR8; format: in vivo, mice
Procedure: as §2, §5, §6

BT474 xenograft tumor = test: Xenograft study with Ab #6 (MM-121): BT474; format: in vivo, mice
From the text: In this example, the data obtained for the four cell lines examined in the xenograft studies described in Example 1 (ADRr, ACHN, DU154 and MALME3M) and four cell lines including the three examined in the xenograft studies described in Example 7 (IGROV 1, OVCAR8 and SKOV3), as well as a fourth, BT474, also examined in xenograft studies as described in Example 7, were further examined to determine whether direct biomarkers for Ab #6 (MM-121) responsiveness could be identified.
Next, it was examined whether the concentration of heregulin (HRG) in combination with one receptor concentration (e.g., ErbB1, ErbB3) effectively classified the xenograft data into responders and non-responders. As illustrated in the graph of FIG. 11 (in which the log of the concentration of HRG is plotted against the log of the concentration of ErbB1), these two concentration measurements, HRG and one of the ErbB receptors, were able to accurately classify the xenograft data into responders and non-responders. More specifically, the data for four non-responders BT474, MALME3, ADRr and IGROV1, were separable from the data for four responders, OVCAR8, SKOV3, ACHN, and DU154, thereby allowing for classification of non-responders versus responders. […] For this example, EGFR is measured by FACS and HRG is measured by RT-PCR. […]

SKOV3 xenograft tumor = test: Xenograft study with Ab #6 (predicted set): SKOV3; format: in vivo, mice
Procedure: as §2, §5, §6

ZR75-1 xenografts = test: Nude mouse xenograft test of MM-121: ZR75-1; format: in vivo
From the text: (§7) FIG. 11 is a graph depicting the ability of an anti-ErbB3 antibody (Ab #6, MM-121) to inhibit proliferation of ACHN cells and cells of other cell lines. The center line of the three parallel diagonal lines represents the line computed to maximally separate MM-121 responders from non-responders. Predicted responder MDA-MB-231 was subsequently tested as nude mouse xenografts and was confirmed as a responder (i.e., growth of MDA-MB-231 as nude mouse xenografts was inhibited by MM-121 treatment). Other predicted responders would not grow adequately as xenografts and so could not be tested. Predicted non-responders ZR75-1 and HOP92 were subsequently tested as nude mouse xenografts and were confirmed as non-responders (i.e., growth of each as nude mouse xenografts was not inhibited by MM-121 treatment). Other predicted non-responders have not yet been tested experimentally.

[2] = system: MALME3M xenograft tumor (melanoma cancer line); test: Xenograft efficacy study with Ab #6: MALME3M; format: in vivo, nu/nu mice
From the text: as §1, §2, §3, §4

HOP92 xenografts = test: Nude mouse xenograft test of MM-121: HOP92; format: in vivo
From the text: as §7

[3] = system: ACHN xenograft tumor (renal cancer cell line); test: Xenograft efficacy study with Ab #6: ACHN; format: in vivo, nu/nu mice
From the text: as §1, §2, §3, §4

ErbB3 [4] = biological target: T1, ErbB3 (UniProt P21860 20-643, limits assumed); test: Kinexa
T1 construct: Elsewhere it speaks of the ectodomain of human ErbB3; also called E3; HER3

ErbB3 [5] = biological target: ErbB3 (Homo sapiens, UniProt P21860); test: Ab #6 rate constants measured by Kinexa (inhibitor parameter values, Table 13); format: binding
MDA-MB-231 xenografts = test: Nude mouse xenograft test of MM-121: MDA-MB-231; format: in vivo
From the text: as §7

[6] = system: ADRr xenograft tumor (ovarian cancer cell line); test: Xenograft efficacy study with Ab #6: ADRr; format: in vivo, nu/nu mice
From the text: as §1, §2, §3, §4

ErbB3 [7] = biological target: T1, ErbB3; test: Kinexa; same on-rate as 1.43e5 M^-1s^-1, converted to model units per well
[8] = Ab #6 600 μg/injection every 3 days vs PBS
[9] = 600 μg of Ab #6 every 3 days vs PBS
[10] = Ab #6 600 μg/injection every 3 days vs PBS, negative GRR set to zero

koff (ErbB3 [4]): 0.00011 s⁻¹ | kon (ErbB3 [4]): 143000 M⁻¹ s⁻¹ | kr Ab #6_1: Ab #6 inhibitor dissociation from ErbB3 (ErbB3 [5]): 0.00011 s⁻¹ | kr Ab #6_2: Ab #6 inhibitor dissociation from a second ErbB3 (ErbB3 [5]; 2 * krmm121_1): 0.00022 s⁻¹ | kf Ab #6_1: Ab #6 inhibitor binding to ErbB3 (ErbB3 [5]; unit conversion from M^−1s^−1 /(Vmedia * Av/Num_cells), Num_cells = 30,000 per well): 7.15E−11 molecules^−1 sec^−1 | kon (ErbB3 [7]): 143000 M⁻¹ s⁻¹
B1: anti-ErbB3 monoclonal antibody Ab #6 (antibody, V domains shown)
VH: EVQLLESGGGLVQPGGSLRLSCAASGFTFSHYVMAWVRQAPGKGLEWVSSISSSGGWTLYADSVKGRFTISRDNSKNTLYLQMNSLRAEDTAVYYCTRGLKMATIFDYWGQGTLVTVSS
VL: QSALTQPASVSGSPGQSITISCTGTSSDVGSYNVVSWYQQHPGKAPKLIIYEVSQRPSGVSNRFSGSKSGNTASLTISGLQTEDEADYYCCSYAGSSIFVIFGGGTKVTVL
notes: also called MM-121
GRR (Tumor Growth Rate Reduction) [1, 8]: 72.6% | effect of antibody treatment on tumor growth (in words) ([1]; vs PBS control): inhibited tumor growth; also recorded: highest responsiveness | experimentally observed responsiveness to Ab #6 based on GRR value (IGROV1 xenograft tumor): non-responder | GRR (Tumor Growth Rate Reduction) (IGROV1 xenograft tumor; [9]): 6.3% | experimentally observed responsiveness to Ab #6 based on GRR value (OVCAR8 xenograft tumor): responders | GRR (Tumor Growth Rate Reduction) (OVCAR8 xenograft tumor; [9]): 91.4% | xenograft responsiveness (responder / non-responder) (BT474 xenograft tumor): non-responders | experimentally observed responsiveness to Ab #6 based on GRR value (SKOV3 xenograft tumor): responders | GRR (Tumor Growth Rate Reduction) (SKOV3 xenograft tumor; [9]): 19.6% | growth as nude mouse xenografts under MM-121 treatment (ZR75-1 xenografts): not inhibited | GRR (Tumor Growth Rate Reduction) [2, 10]: 0% | effect of antibody treatment on tumor growth (in words) ([2]; vs PBS control): did not inhibit tumor growth; also recorded: no response | growth as nude mouse xenografts under MM-121 treatment (HOP92 xenografts): not inhibited | GRR (Tumor Growth Rate Reduction) [3, 8]: 28.0% | effect of antibody treatment on tumor growth (in words) ([3]; vs PBS control): inhibited tumor growth; also recorded: mid-range responsiveness | Ab #6 inhibitor binding to ErbB3 (on-rate before unit conversion) (ErbB3 [5]): calculated as 1.43e5 M^−1s^−1/(Vmedia * Av/Num_cells). | growth as nude mouse xenografts under MM-121 treatment (MDA-MB-231 xenografts): inhibited | GRR (Tumor Growth Rate Reduction) [6, 10]: 0% | effect of antibody treatment on tumor growth (in words) ([6]; vs PBS control): did not inhibit tumor growth; also recorded: no response
